# Measured values published in article PMC8664833.
# B1: Full PRF (WT SARS-CoV-2 -1PRF RNA) (structured_RNA)
# RNA: UCGUUUUUAAACGGGUUUGCGGUGUAAGUGCAGCCCGUCUUACACCGUGCGGCACAGGCACUAGUACUGAUGUCGUAUACAGGGCUUUUGACAUCUACAAUGAUAAAGUAGCUG
# Experiments:
# [1] = target: ZAP-S (short isoform of zinc-finger antiviral protein) (human, UniProt Q7Z2W4-2 1-699); assay: MST; 5 mM Mg2+; conditions: protein: recombinant; tags: N-terminal 6xHis-SUMO; label: 3' pCp-Cy5; pseudoknot (SL1, SL2, SL3)
# [2] = target: IMP3 (IGF2BP3) (UniProt O00425 1-579); assay: MST; 5 mM Mg2+; conditions: protein: recombinant; tags: His-SUMO; label: 3' pCp-Cy5; pseudoknot (SL1, SL2, SL3)
# IMP3 (IGF2BP3), sequence (O00425 whole entry): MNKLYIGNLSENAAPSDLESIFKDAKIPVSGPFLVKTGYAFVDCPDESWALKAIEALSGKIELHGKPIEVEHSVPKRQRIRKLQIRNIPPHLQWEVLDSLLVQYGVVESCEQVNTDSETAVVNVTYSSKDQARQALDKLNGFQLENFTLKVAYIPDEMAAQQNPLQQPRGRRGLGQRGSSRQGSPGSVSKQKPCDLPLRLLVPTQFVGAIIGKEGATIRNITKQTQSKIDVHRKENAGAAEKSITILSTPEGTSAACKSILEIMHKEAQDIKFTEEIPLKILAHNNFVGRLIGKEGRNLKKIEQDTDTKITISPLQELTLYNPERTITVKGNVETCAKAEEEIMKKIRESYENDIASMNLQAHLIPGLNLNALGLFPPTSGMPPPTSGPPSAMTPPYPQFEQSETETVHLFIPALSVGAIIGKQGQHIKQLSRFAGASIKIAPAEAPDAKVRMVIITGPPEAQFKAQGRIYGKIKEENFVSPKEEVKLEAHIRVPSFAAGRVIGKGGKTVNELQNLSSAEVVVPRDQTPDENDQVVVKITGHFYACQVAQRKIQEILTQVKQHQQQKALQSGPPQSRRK
# ZAP-S (short isoform of zinc-finger antiviral protein), sequence (Q7Z2W4 other isoform, or with tags, fused parts or gaps): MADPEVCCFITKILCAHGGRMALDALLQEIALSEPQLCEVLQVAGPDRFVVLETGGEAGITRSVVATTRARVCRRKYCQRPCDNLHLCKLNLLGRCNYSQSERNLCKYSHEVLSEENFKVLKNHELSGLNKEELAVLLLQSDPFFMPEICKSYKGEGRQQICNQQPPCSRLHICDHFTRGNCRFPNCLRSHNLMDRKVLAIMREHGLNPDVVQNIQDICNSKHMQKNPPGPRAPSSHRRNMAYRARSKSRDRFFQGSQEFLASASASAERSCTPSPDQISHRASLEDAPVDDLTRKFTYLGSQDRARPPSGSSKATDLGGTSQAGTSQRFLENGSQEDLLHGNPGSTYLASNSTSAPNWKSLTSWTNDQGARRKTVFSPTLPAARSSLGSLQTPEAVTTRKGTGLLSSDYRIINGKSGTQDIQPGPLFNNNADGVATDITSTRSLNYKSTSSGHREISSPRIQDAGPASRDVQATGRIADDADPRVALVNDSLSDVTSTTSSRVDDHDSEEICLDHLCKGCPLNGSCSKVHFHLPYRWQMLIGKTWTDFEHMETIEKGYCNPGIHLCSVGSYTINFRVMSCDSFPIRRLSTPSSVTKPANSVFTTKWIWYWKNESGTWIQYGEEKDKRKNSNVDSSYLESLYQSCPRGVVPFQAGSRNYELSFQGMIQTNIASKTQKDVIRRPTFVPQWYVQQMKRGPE
binder,measurement,setting,value
B1,Kd,[1],110 ± 9 nM
same,Kd,[2],806 ± 252 nM
